Changes are numbered by the printed parent chain.

Experiment [1] deals with T1, Human IL-17F (R&D Systems, cat #1335-IL-025/CF) (human, UniProt Q96PD4 31-163).
T1 construct: That entry is derived from the native cDNA and may include the signal peptide; also called rhIL-17F; recombinant human IL-17F
T1 sequence: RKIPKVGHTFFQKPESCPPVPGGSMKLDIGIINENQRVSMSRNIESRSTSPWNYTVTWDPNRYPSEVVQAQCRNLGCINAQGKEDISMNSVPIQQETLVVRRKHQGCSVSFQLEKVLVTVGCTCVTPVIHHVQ
Description: screening of cross-reactive clones; assay not given.

The target of experiment [2] is T2, Recombinant human IL-17A/F heterodimer (human, UniProt Q16552 24-155; Q96PD4 31-163).
T2 construct: also called IL-17A/F (GNE)
The description is as above.

In experiment [3] the target is T3, Human IL-17F dimer (baculovirus/Hi5-expressed, His-tag removed by thrombin) (human, UniProt Q96PD4 31-163, limits assumed).
T3 construct: The N-terminal His-tag and thrombin site were introduced and then cleaved off; also called purified recombinant IL17F
T3 sequence: T1 sequence
In words: X-ray crystal structure, content of the asymmetric unit.

For experiment [4], the target named is T1, Human IL-17F (R&D Systems, cat …). In words: BIAcore SPR, IgG captured by anti-human Fc. For orientation: SPR reads the build-up and loss of mass on a sensor chip optically.

T2 sequence (Q16552 24-155 limits assumed, one chain of several): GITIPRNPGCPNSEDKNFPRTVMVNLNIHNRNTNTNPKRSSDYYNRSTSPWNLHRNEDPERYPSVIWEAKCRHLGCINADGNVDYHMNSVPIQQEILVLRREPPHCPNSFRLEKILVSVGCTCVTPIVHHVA

B1: YW278.15 (antibody, V domains shown)
VH: EVQLVESGGGLVQPGGSLRLSCAASGFTFTDYDISWVRQAPGKGLEWVASISPSDGYTYYADSVKGRFTISADTSKNTAYLQMNSLRAEDTAVYYCARYLYWSYVMDYWGQGTLVTVSS
VL: DIQMTQSPSSLSASVGDRVTITCRASQDVSTAVAWYQQKPGKAPKLLIYSASFLYSGVPSRFSGSGSGTDFTLTISSLQPEDFATYYCQQSYTTPPTFGQGTKVEIKR
As to B1, the binding result in experiment [1] and in experiment [2] was “binds” throughout.

B2: Fab fragment of YW 278.15.18.C55S (Fab, V domains shown)
VH: B1 VH with S54P, G56S
VL: B1 VL with T94A, P95K, P96L
notes: also called YW278.15.18C55S Fab
On to B2, for which the binding result in experiment [3] is recorded as “binds”.

B3: YW278.15.2 (antibody, V domains shown)
VH: B1 VH with T28S, T30I, S54Y
VL: B1 VL with S91Y, T93I, T94Y, P96A
In the case of B3, the binding result in experiment [4] was “binds”.

B4: YW278.15.18 (antibody, V domains shown)
VH: B1 VH with S54P, G56C
VL: B1 VL with T94A, P95K, P96L
In the case of B4, the binding result in experiment [4] is given as “binds”.

Source of the values: patent US20100055103A1 (Genentech, published 2010).
